Patent publication US20110014211A1 (INSTITUTE FOR ANTIBODIES, published 2011)

Experiments:
[1] = target: neuronal cell binding domain of the heavy chain C-terminal end (Hc, E. coli recombinant protein) (Clostridium botulinum, UniProt P0DPI0 871-1296); assay: immunoblotting of Hc after SDS-PAGE (denatured antigen)
[2] = target: Neurotoxin light chain (L-chain) (Clostridium botulinum, UniProt P0DPI0 2-448); assay: ELISA, IgG on immobilised L-chain
[3] = target: Neurotoxin heavy chain (H-chain) (Clostridium botulinum, UniProt P0DPI0 449-1296); assay: ELISA, IgG on immobilised H-chain

| Binder | binding result [1] | binding result [2] | binding result [3] |
| --- | --- | --- | --- |
| NT-539 IgG type antibody (antibody, V domains shown) VH: not shown VL: DIQMTQSPSAVSASLGDRVTITCRASQGINPFLAWFQQKPGKVPERLIYTASRLQSGVPSRFSGSGTGTEFNLTISSLHPEDFATYYCLQHKHYPWTFGQGTKVERK | no binding (tested: 50 µg/ml) | no binding (tested: 10 µg/ml) |  |
| BT-015 IgG type antibody (antibody, V domains shown) VH: QVQLQQSGAEVKKPGASVKVACKASRYNFSAYYMHWVRQAPGQGPEWMGWINPHSGVTTYAQKFQGRVTMTRDTSIGTAYMELSRLRSDDTALYYCARGFGSSCSDTSCSFSGLDVWGQGTTVTVSS VL: QSALTQPASVSGSPGQSITISCTGTSSDVGGYDYVSWYQQHPGEAPKLLIYDVTNRPSGVSSRFSGSKSGNTASLTISGLQPEDEADYYCTSYTSSVTYVFGSGTTLTVLS | no binding (tested: 50 µg/ml) | no binding (tested: 1 µg/ml) |  |
| BT-175 IgG type antibody (antibody, V domains shown) VH: QITLKESGPTLVKPTQTLTLTCTFSGFSLRTSGVGVGWIRQPPGKAPEWLALIYWDGDKRFSPSLKSRLTINKDISKNQVVLTLTNLDPVDTGTYYCAHSFYHGSQSPGWFDPWGQGTLVTVSS VL: QSVLTQPPSVSAAPGQKVTISCSGSSSNIGNNYVSWYQQLPGTAPKLLIYDNNKRPSGIPDRFSGSKSGTSATLGITGLQTGDEADYYCGTWDSSLSAVFGGGTKLTVLG | no binding (tested: 50 µg/ml) |  | no binding (tested: 1 µg/ml) |
| NT-221 IgG type antibody (antibody, V domains shown) VH: EVQLVESGPTLVKPTQTLTLTCTFSGFSLRTSGVAVGWIRQPPGKALEWLALIYWDDDKRYSPSLKSRLTITKDTSKNQVVLTMTNMDPVDTATYYCAHNTGTDLYFDWAFDYWGQGTLVTVSS VL: QSVLTQPPSVSGAPGQRVTISCTGSSSNIGAGYDVHWYQQLPGTAPKLLIYGNSNRPSGVPDRFSGSKSGTSASLAITGLQAEDEADYYCQSYDSSLSGSVFGGGTKLTVLG | no binding (tested: 50 µg/ml) | no binding (tested: 1 µg/ml) | no binding (tested: 1 µg/ml) |
| NT-320 IgG type antibody (antibody, V domains shown) VH: EVQLVESGGGVVQPGKSLRLSCAASGFTFSSYGMHWVRQAPGKGLEWVAVISYPGTNEYYTDSVKGRFTISRDNSKNTLYLQMNSLRAEDTAVYYCARGDIHSGYSFGGGDYGLDVWGQGTTVTVSS VL: DIQMTQSPSTLSASVGDRVTITCRASQSISGWLAWYQQKPGKAPKLLMYKASSLESGVPSRFSGSGSGTEFTLTISSLQPDDFATYYCQQYNNFPWTFGQGTKVEFK | no binding (tested: 50 µg/ml) |  |  |
